From US20170115291A1, “Activating JAK Kinase Biomarkers Predictive of Anti-Immune Checkpoint Inhibitor Response” (Dana-Farber Cancer Institute, Inc., priority 2014, published 2017)

Test system: CD14+ myeloid cells
Experiment: PBMC stimulation with IFNγ, PD-L1 on CD14+ myeloid cells by flow cytometry
Type: cell-based, human
Details: JAK3 V722I positive patients vs JAK3 P132T positive patient or blood donor controls, 250 ng/ml, 48 h
Description: Peripheral blood mononuclear cells (PBMCs) from patients identified as having JAK3 V722I or P132T variants (see sequencing section above) and healthy donors were isolated from fresh blood and platelet-depleted blood collars, respectively, by Ficoll method. PBMCs were plated at a density of 7.5×10^5 cells/ml in a 48-well plate and stimulated with 250 ng/ml IFNγ (PBL Interferon Source). No stimulation controls were set-up for each donor. At 48 h post-stimulation, cells were treated with 2 mM EDTA and collected for flow cytometry to assess for PD-L1 expression on CD14+ myeloid cells. Cells were stained with Live/Dead yellow viability dye (Invitrogen), as well as antibodies (BD Biosciences) against CD14 (M5E2), CD11b (ICRF44), and PD-L1 (MIH1) for 30 min at 4 C, and then fixed in BD Cytofix® buffer prior to analyses on BD LSR Fortessa SORT® HTS flow cytometer. Given the need to compare the difference between two means in relation to the variation in the data, a t-test was used to compare PD-L1 inducibility between V722I and non-V722I monocytes.

B1: IFN-γ: cytokine known to trigger PD-L1 in the tumor immune microenvironment (protein, UniProt P01579 24-161, looked up)
Interferon gamma: QDPYVKEAENLKKYFNAGHSDVADNGTLFLGILKNWKEESDRKIMQSQIVSFYFKLFKNFKDDQSIQKSVETIKEDMNVKFFNSNKKKRDDFEKLTNYSVTDLNVQRKAIHELIQVMAELSPAAKTGKRKRSQMLFRG
- Expression of PD-L1 on CD14+ myeloid cells: modest but significantly increased
